Assay results from patent publication US20230212587A1, “Mutant Hydroxyphenylpyruvate Dioxygenase Polypeptide, Encoding Gene Thereof and Use Therefor” (Beijing Dabeinong Biotechnology Co., Ltd., priority 2019, published 2023).
Positions count from the first letter of the chain named. Names may count otherwise.

B1: BnHPPD-02: native Brassica napus HPPD, SEQ ID NO: 87 (protein, listed as Brassica napus)
chain: MGHENAAVCETQQHDDAASPGFKLVGFSKFVRKNPKSDKFKVKRFHHIEFWCGDATNVSRRFSWGLGMRFSAKSDLSTGNMVHASYLLTSGDLRFLFTAPYSPSLSAGEAQPSATASIPSFDHASCRSFFSSHGLGVRAVAIEVEDAESAFSISVANGAVPSSPPNVLNGAVTIAEVKLYGDVVLRYVSYYNGTVSFLPGFESVDDTSSFPLDYGIRRLDHAVGNVPELGPALTYLAGFTGFHQFAEFTADDVGTAESGLNSAVLANNDEMVLLPINEPVHGTKRKSQIQTFLEHNEGAGLQHLALMSEDIFRTLREMRKRSGVGGFDFMPSPPPTYYKNLKKRVGDVLSEEQIEECEELGILVDRDDQGTLLQIFTKPLGDRPTIFIEIIQRVGCMKRDEEGKVYQSGGCGGFGKGNFSELFKSIEEYEKTLEAKQLVG
modifications: BnHPPD Amino Acid Sequence
B2: BnHPPDm-F372A-02: Brassica napus HPPD mutant F372A, SEQ ID NO: 90 (protein)
chain: B1 chain with F376A
modifications: BnHPPDm-F372A Amino Acid Sequence
B3: HaHPPD-02: native Helianthus annuus HPPD, SEQ ID NO: 93 (protein, listed as Helianthus annuus)
chain: MGTEATVAAVVAGDESDHPTSAFKLVGFKNFIRTNPMSDKFTVKNFHHIEFWCSDATNTARRFSWGLGMPIIFKSDLSTGNSTHASYLLRSGHLNFLFTAPYSPSISPTTTTASIPTFSHSASRHFTATHGLAVRAIAVEVEDAETAFAVSVANGAKPSSPPVTLGHNDVVLSEVKLYGDVVLRYVSYKNNTNNNNNNDNDNYIFLPGFEAMDKTSSFQELDYGIRRLDHAVGNVPELAPAVDYVKSFTGFHEFAEFTAEDVGTSESGLNSVVLACNSEMVLIPMNEPVYGTKRKSQIQTYLEHNEGAGVQHLALASEDIFRTLREMRKRSGVGGFEFMPSPPPTYYRNLKSRAGDVLSDEQIKECEELGILVDRDDQGTLLQIFTKPVGDRPTIFIEIIQRVGCMVKDDEGKVQQKAGCGGFGKGNFSELFKSIEEYEKTLEARSTTAAA
modifications: HaHPPD Amino Acid Sequence

The molecules below were run on Arabidopsis thaliana T1 plants (assay: Topramezone tolerance of transgenic Arabidopsis thaliana T1 plants (pesticide damage grade by bleached leaf area, score, resistance evaluation)). Conditions: HPPDs from different species; number of plants (of 16) in this grade; topramezone 25 g ai/ha (1x), 7 DAT.
Format: in vivo
In short: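 Herbicide tolerance was judged per plant on a bleaching scale (grade 0 no bleaching to grade 3 fully bleached) 7 DAT. Topramezone doses were 0, 25, 50 and 100 g ai/ha on 18-day-old T1 and wild-type plants.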
In the case of B1, the “Classification and statistics of pesticide damage grade Grade 0” value is reported as 0, the “Classification and statistics of pesticide damage grade Grade 1” value is reported as 0 and the “Classification and statistics of pesticide damage grade Grade 2” value is reported as 0. The “Classification and statistics of pesticide damage grade Grade 3” value was 16. B2 was tested, and the “Classification and statistics of pesticide damage grade Grade 0” value was 0, the “Classification and statistics of pesticide damage grade Grade 1” value was 4 and the “Classification and statistics of pesticide damage grade Grade 2” value was 12. For the same molecule, the “Classification and statistics of pesticide damage grade Grade 3” value was 0. For B3, the “Classification and statistics of pesticide damage grade Grade 0” value was 0, the “Classification and statistics of pesticide damage grade Grade 1” value was 0 and the “Classification and statistics of pesticide damage grade Grade 2” value was 0. The “Classification and statistics of pesticide damage grade Grade 3” value was 16.

Same assay, conditions: HPPDs from different species; number of plants (of 16) in this grade; topramezone 100 g ai/ha (4x), 7 DAT
In the case of B1, the “Classification and statistics of pesticide damage grade Grade 0” value is reported as 0, the “Classification and statistics of pesticide damage grade Grade 1” value is reported as 0 and the “Classification and statistics of pesticide damage grade Grade 2” value is reported as 0. The “Classification and statistics of pesticide damage grade Grade 3” value was 16. For B2, the “Classification and statistics of pesticide damage grade Grade 0” value was 0, the “Classification and statistics of pesticide damage grade Grade 1” value was 0 and the “Classification and statistics of pesticide damage grade Grade 2” value was 0. The “Classification and statistics of pesticide damage grade Grade 3” value was 16. With B3 the “Classification and statistics of pesticide damage grade Grade 0” value was 0, the “Classification and statistics of pesticide damage grade Grade 1” value was 0 and the “Classification and statistics of pesticide damage grade Grade 2” value was 0. The “Classification and statistics of pesticide damage grade Grade 3” value was 16.

Same assay, conditions: HPPDs from different species; score for pesticide damage 0-100; topramezone 25 g ai/ha (1x), 7 DAT
Work on B1 yielded a Scores of 100. With B2 the Scores was 58. B3 showed a Scores of 100.

Same assay, conditions: HPPDs from different species; score for pesticide damage 0-100; topramezone 100 g ai/ha (4x), 7 DAT
B1 showed a Scores of 100. In the case of B2, the Scores is reported as 100. Work on B3 yielded a Scores of 100.

Same assay, conditions: HPPDs from different species; topramezone 25 g ai/ha (1x), 7 DAT
With B1 the Resistance evaluation was “non-resistant (non-resistant plants (scores 68-100))”. For B2, the Resistance evaluation was “poorly resistant (poorly resistant plants (scores 34-67))”. For B3, the Resistance evaluation was “non-resistant (non-resistant plants (scores 68-100))”.

Same assay, conditions: HPPDs from different species; topramezone 100 g ai/ha (4x), 7 DAT
B1 was tested, and the Resistance evaluation was “non-resistant (non-resistant plants (scores 68-100))”. In the case of B2, the Resistance evaluation is reported as “non-resistant (non-resistant plants (scores 68-100))”. B3 was tested, and the Resistance evaluation was “non-resistant (non-resistant plants (scores 68-100))”.
